The values below come from patent US20240327535A1 (EISAI R AND D MANAGEMENT, published 2024).

Where two headings read alike, the source gives them in different places.

Experiment in all cases: Octet BLI; Fab 200 nM
Experiment [1] deals with T1, extracellular domain of human BCMA (human, UniProt Q02223 1-54).
T1 construct: amine-linked to Octet AR2G tips; also called hsBCMA; BCMA (human)
T1 sequence: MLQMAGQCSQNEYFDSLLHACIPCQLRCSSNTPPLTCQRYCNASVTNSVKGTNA

Experiment [2] addresses T2, extracellular domain of rhesus monkey BCMA (rhesus monkey, UniProt F7FFA0 1-53).
T2 construct: extracellular domain; also called RhBCMA

The target in experiment [3] is T1, extracellular domain of human BCMA. The source holds these as a separate data set.
Experiment [4] addresses T2, extracellular domain of rhesus monkey …. This is another data set of the same source.

T2 sequence (F7FFA0 entry or part of it): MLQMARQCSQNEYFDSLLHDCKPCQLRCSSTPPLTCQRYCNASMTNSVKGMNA

B1: AB200-(2Vk30)_R2-VH-v19 (Fab, V domains shown)
VH: QVQLVQSGAEVKKPGSSVKVSCKASGGTFSNYWIHWVRQAPGQGLEWMGGTYRSHSTTYYNQKFKSRVTITADKSTSTAYMELSSLRSEDTAVYYCARGAIYHGFDVIDNWGQGTLVTVSS
VL: DIQMTQSPSSLSASVGDRVTITCRASQSISSYLNWYQQKPGKAPKLLIYATSNLQIGVPSRFSGSGSGTDFTLTISSLQPEDFATYYCQQYRRIPWTFGQGTKLEIKR
Usually Kd stands for the constant that tells how readily two partners part at equilibrium. On to B1, for which the dissociation constant (Kd) in experiment [1] was found to be 14.6 nM; in experiment [2], 25.4 nM.

B2: AB200-(2Vk30)_R2-VH-v45 (Fab, V domains shown)
VH: QVQLVQSGAEVKKPGSSVKVSCKASGGTYSNYWIHWVRQAPGQGLEWMGATYRIHSTTNYNQKFKSRVTITADKSTSTAYMELSSLRSEDTAVYYCARGAIFHGYDVIDNWGQGTLVTVSS
VL: DIQMTQSPSSLSASVGDRVTITCRASQSISSYLNWYQQKPGKAPKLLIYATSNLQIGVPSRFSGSGSGTDFTLTISSLQPEDFATYYCQQYRRIPWTFGQGTKLEIKR
In the case of B2, the Kd in experiment [1] is 720 nM; in experiment [2], 3080 nM.

B3: AB200-(2Vk30)_R2-VH-v43 (Fab, V domains shown)
VH: QVQLVQSGAEVKKPGSSVKVSCKASGGTFTNYWIHWVRQAPGQGLEWMGGTYRIHSDTYYAQKFKSRVTITADKSTSTAYMELSSLRSEDTAVYYCARGAIYHGFDVIDNWGQGTLVTVSS
VL: DIQMTQSPSSLSASVGDRVTITCRASQSISSYLNWYQQKPGKAPKLLIYATSNLQIGVPSRFSGSGSGTDFTLTISSLQPEDFATYYCQQYRRIPWTFGQGTKLEIKR
For B3, the dissociation constant Kd in experiment [1] is 6.82 nM; in experiment [2], 25.8 nM.

B4: AB200-(2Vk30)_R2-VH-v23 (Fab, V domains shown)
VH: QVQLVQSGAEVKKPGSSVKVSCKASGGTFSNYWIHWVRQAPGQGLEWMGGTYRSHSDTYYNQKYKSRVTITADKSTSTAYMELSSLRSEDTAVYYCARGAIFHGYDVIDNWGQGTLVTVSS
VL: DIQMTQSPSSLSASVGDRVTITCRASQSISSYLNWYQQKPGKAPKLLIYATSNLQIGVPSRFSGSGSGTDFTLTISSLQPEDFATYYCQQYRRIPWTFGQGTKLEIKR
For B4, the Kd came to 6.89 nM in experiment [1] and 25.9 nM in experiment [2].

B5: AB200-(2Vk30)_R2-VH-v71 (Fab, V domains shown)
VH: QVQLVQSGAEVKKPGSSVKVSCKASGGTFSNYWIHWVRQAPGQGLEWMGATYRIHSDTNYNEKFKSRVTITADKSTSTAYMELSSLRSEDTAVYYCARGAIFHGYDVIDNWGQGTLVTVSS
VL: DIQMTQSPSSLSASVGDRVTITCRASQSISSYLNWYQQKPGKAPKLLIYATSNLQIGVPSRFSGSGSGTDFTLTISSLQPEDFATYYCQQYRRIPWTFGQGTKLEIKR
With B5, the values for the Kd in experiment [1] and in experiment [2] were 29.7 nM and 64.1 nM, respectively.

B6: AB200-(2Vk30)_R2-VH-v39 (Fab, V domains shown)
VH: QVQLVQSGAEVKKPGSSVKVSCKASGGTFTNYWIHWVRQAPGQGLEWMGATYRIHSDTYYAEKFKSRVTITADKSTSTAYMELSSLRSEDTAVYYCARGAIFHGYDVIDNWGQGTLVTVSS
VL: DIQMTQSPSSLSASVGDRVTITCRASQSISSYLNWYQQKPGKAPKLLIYATSNLQIGVPSRFSGSGSGTDFTLTISSLQPEDFATYYCQQYRRIPWTFGQGTKLEIKR
As for B6, the Kd in experiment [1] is 3 nM; in experiment [2], 15.4 nM.

B7: AB200-(2Vk35)_R2-VH-v8 (Fab, V domains shown)
VH: QVQLVQSGAEVKKPGSSVKVSCKASGGTYSNYWIHWVRQAPGQGLEWMGGTYRSQSDTYYNQKFKSRVTITADKSTSTAYMELSSLRSEDTAVYYCARGAIYHGFDVIDNWGQGTLVTVSS
VL: DIQMTQSPSSLSASVGDRVTITCRASQSISSYINWYQQKPGKAPKLLIYATSNLQSGVPSRFSGSGSGTDFTLTISSLQPEDFATYYCQQYRRIPWTFGQGTKLEIKR
B7: the Kd in experiment [3] turned out to be 12.1 nM; in experiment [4] it was 38 nM.

B8: AB200-(2Vk30)_R2-VH-v31 (Fab, V domains shown)
VH: QVQLVQSGAEVKKPGSSVKVSCKASGGTFSNYWIHWVRQAPGQGLEWMGATYRSQSDTNYNQKFKSRVTITADKSTSTAYMELSSLRSEDTAVYYCARGAVYHGYDVIDNWGQGTLVTVSS
VL: DIQMTQSPSSLSASVGDRVTITCRASQSISSYLNWYQQKPGKAPKLLIYATSNLQIGVPSRFSGSGSGTDFTLTISSLQPEDFATYYCQQYRRIPWTFGQGTKLEIKR
For B8, the Kd came out at 12.9 nM in experiment [1] and 38.4 nM in experiment [2].

B9: AB200-(2Vk35)_R2-VH-v26 (Fab, V domains shown)
VH: QVQLVQSGAEVKKPGSSVKVSCKASGGTFSNYWIHWVRQAPGQGLEWMGATYRSHSTTYYAQKFKSRVTITADKSTSTAYMELSSLRSEDTAVYYCARGAIFHGYDVIDNWGQGTLVTVSS
VL: DIQMTQSPSSLSASVGDRVTITCRASQSISSYINWYQQKPGKAPKLLIYATSNLQSGVPSRFSGSGSGTDFTLTISSLQPEDFATYYCQQYRRIPWTFGQGTKLEIKR
In the case of B9, the values for the Kd in experiment [3] and in experiment [4] were 20.9 nM and 40.7 nM, respectively.

B10: AB200-(2Vk30)_R2-VH-v59 (Fab, V domains shown)
VH: QVQLVQSGAEVKKPGSSVKVSCKASGGTFSNYWIHWVRQAPGQGLEWMGGTYRIHSDTYYAQKFKSRVTITADKSTSTAYMELSSLRSEDTAVYYCARGAIYHGYDVIENWGQGTLVTVSS
VL: DIQMTQSPSSLSASVGDRVTITCRASQSISSYLNWYQQKPGKAPKLLIYATSNLQIGVPSRFSGSGSGTDFTLTISSLQPEDFATYYCQQYRRIPWTFGQGTKLEIKR
For B10, the results for the Kd in experiment [1] and in experiment [2] were 37.8 nM and 121 nM, respectively.

B11: AB200-(2Vk35)_R2-VH-v11 (Fab, V domains shown)
VH: QVQLVQSGAEVKKPGSSVKVSCKASGGTYSNYWIHWVRQAPGQGLEWMGATYRSHSDTNYNEKFKSRVTITADKSTSTAYMELSSLRSEDTAVYYCARGAVYHGYDVIDNWGQGTLVTVSS
VL: DIQMTQSPSSLSASVGDRVTITCRASQSISSYINWYQQKPGKAPKLLIYATSNLQSGVPSRFSGSGSGTDFTLTISSLQPEDFATYYCQQYRRIPWTFGQGTKLEIKR
With B11, the equilibrium dissociation constant (Kd) is 47 nM in experiment [3] and 130 nM in experiment [4].

B12: AB200-(2Vk35)_R2-VH-v15 (Fab, V domains shown)
VH: QVQLVQSGAEVKKPGSSVKVSCKASGGSFSNYWIHWVRQAPGQGLEWMGATYRSQSTTYYNQKFKSRVTITADKSTSTAYMELSSLRSEDTAVYYCARGAIFHGYDVIDNWGQGTLVTVSS
VL: DIQMTQSPSSLSASVGDRVTITCRASQSISSYINWYQQKPGKAPKLLIYATSNLQSGVPSRFSGSGSGTDFTLTISSLQPEDFATYYCQQYRRIPWTFGQGTKLEIKR
On to B12, for which the Kd came to 25.5 nM in experiment [3] and 48.6 nM in experiment [4].

B13: AB200-(2Vk35)_R2-VH-v9 (Fab, V domains shown)
VH: QVQLVQSGAEVKKPGSSVKVSCKASGGTYSNYWIHWVRQAPGQGLEWMGATYRSQSDTNYNQKFKSRVTITADKSTSTAYMELSSLRSEDTAVYYCARGAIYHGFDVIDNWGQGTLVTVSS
VL: DIQMTQSPSSLSASVGDRVTITCRASQSISSYINWYQQKPGKAPKLLIYATSNLQSGVPSRFSGSGSGTDFTLTISSLQPEDFATYYCQQYRRIPWTFGQGTKLEIKR
For B13, the Kd is 49.3 nM in experiment [3] and 103 nM in experiment [4].

B14: AB200-(2Vk30)_R2-VH-v40 (Fab, V domains shown)
VH: QVQLVQSGAEVKKPGSSVKVSCKASGGTFTNYWIHWVRQAPGQGLEWMGATYRIHSTTYYAQKFKSRVTITADKSTSTAYMELSSLRSEDTAVYYCARGAIYHGFDVIDNWGQGTLVTVSS
VL: DIQMTQSPSSLSASVGDRVTITCRASQSISSYLNWYQQKPGKAPKLLIYATSNLQIGVPSRFSGSGSGTDFTLTISSLQPEDFATYYCQQYRRIPWTFGQGTKLEIKR
As for B14, the Kd in experiment [1] was determined as 15.5 nM; in experiment [2] it was 32.5 nM.

B15: AB200-(2Vk30)_R2-VH-v74 (Fab, V domains shown)
VH: QVQLVQSGAEVKKPGSSVKVSCKASGGTFSNYWIHWVRQAPGQGLEWMGATYRIHSDTYYAEKFKSRVTITADKSTSTAYMELSSLRSEDTAVYYCARGAIYHGFDVIDNWGQGTLVTVSS
VL: DIQMTQSPSSLSASVGDRVTITCRASQSISSYLNWYQQKPGKAPKLLIYATSNLQIGVPSRFSGSGSGTDFTLTISSLQPEDFATYYCQQYRRIPWTFGQGTKLEIKR
For the molecule B15, the Kd in experiment [1] is 2.17 nM; in experiment [2] it was 9.83 nM.

B16: AB200-(2Vk30)_R2-VH-v30 (Fab, V domains shown)
VH: QVQLVQSGAEVKKPGSSVKVSCKASGGTFSNYWIHWVRQAPGQGLEWMGATYRSHSDTNYAQKFKSRVTITADKSTSTAYMELSSLRSEDTAVYYCARGAIYHGYDVIENWGQGTLVTVSS
VL: DIQMTQSPSSLSASVGDRVTITCRASQSISSYLNWYQQKPGKAPKLLIYATSNLQIGVPSRFSGSGSGTDFTLTISSLQPEDFATYYCQQYRRIPWTFGQGTKLEIKR
Regarding B16, the dissociation constant Kd in experiment [1] was 50.4 nM; in experiment [2] it was 141 nM.

B17: AB200-(2Vk30)_R2-VH-v51 (Fab, V domains shown)
VH: QVQLVQSGAEVKKPGSSVKVSCKASGGSFSNYWIHWVRQAPGQGLEWMGGTYRIQSDTYYNQKFKSRVTITADKSTSTAYMELSSLRSEDTAVYYCARGAIYHGYDVIENWGQGTLVTVSS
VL: DIQMTQSPSSLSASVGDRVTITCRASQSISSYLNWYQQKPGKAPKLLIYATSNLQIGVPSRFSGSGSGTDFTLTISSLQPEDFATYYCQQYRRIPWTFGQGTKLEIKR
On to B17, for which the Kd in experiment [1] amounted to 20.3 nM; in experiment [2] it was 68.9 nM.

B18: AB200-(2Vk30)_R2-VH-v67 (Fab, V domains shown)
VH: QVQLVQSGAEVKKPGSSVKVSCKASGGTFSNYWIHWVRQAPGQGLEWMGATYRIHSTTYYNEKFKSRVTITADKSTSTAYMELSSLRSEDTAVYYCARGAVYHGYDVIDNWGQGTLVTVSS
VL: DIQMTQSPSSLSASVGDRVTITCRASQSISSYLNWYQQKPGKAPKLLIYATSNLQIGVPSRFSGSGSGTDFTLTISSLQPEDFATYYCQQYRRIPWTFGQGTKLEIKR
B18: the results for the Kd in experiment [1] and in experiment [2] were 16.8 nM and 35.7 nM, respectively.

B19: AB200-(2Vk30)_R2-VH-v65 (Fab, V domains shown)
VH: QVQLVQSGAEVKKPGSSVKVSCKASGGTFSNYWIHWVRQAPGQGLEWMGATYRIQSTTYYNQKFKSRVTITADKSTSTAYMELSSLRSEDTAVYYCARGAIYHGFDVIDNWGQGTLVTVSS
VL: DIQMTQSPSSLSASVGDRVTITCRASQSISSYLNWYQQKPGKAPKLLIYATSNLQIGVPSRFSGSGSGTDFTLTISSLQPEDFATYYCQQYRRIPWTFGQGTKLEIKR
With B19, the Kd in experiment [1] amounted to 27.3 nM; in experiment [2] it was 46.8 nM.
